Results: PMC2635920 (Nature structural & molecular biology, 2009)

T1: Tip20p, full-length (residues 1-701) (S. cerevisiae, UniProt P33891 1-701)
T1 sequence (looked up): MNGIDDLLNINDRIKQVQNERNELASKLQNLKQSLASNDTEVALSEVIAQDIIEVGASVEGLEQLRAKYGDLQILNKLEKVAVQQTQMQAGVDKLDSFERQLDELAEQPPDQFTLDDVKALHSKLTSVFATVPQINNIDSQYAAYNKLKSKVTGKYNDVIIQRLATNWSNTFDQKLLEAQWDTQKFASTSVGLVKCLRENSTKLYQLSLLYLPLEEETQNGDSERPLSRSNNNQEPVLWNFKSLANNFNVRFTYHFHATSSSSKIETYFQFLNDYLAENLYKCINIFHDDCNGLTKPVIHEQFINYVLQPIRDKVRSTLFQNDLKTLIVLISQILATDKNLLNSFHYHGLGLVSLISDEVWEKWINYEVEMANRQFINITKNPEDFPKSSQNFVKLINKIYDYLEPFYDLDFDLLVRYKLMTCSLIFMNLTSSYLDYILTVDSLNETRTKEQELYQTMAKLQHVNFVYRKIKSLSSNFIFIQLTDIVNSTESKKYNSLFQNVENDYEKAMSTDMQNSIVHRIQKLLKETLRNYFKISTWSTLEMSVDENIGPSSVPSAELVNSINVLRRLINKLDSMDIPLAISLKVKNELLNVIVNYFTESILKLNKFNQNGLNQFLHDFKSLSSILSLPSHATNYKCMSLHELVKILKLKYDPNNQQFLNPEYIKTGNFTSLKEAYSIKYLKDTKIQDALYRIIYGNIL

T2: Tip20ΔN (Tip20p residues 82-701) (S. cerevisiae, UniProt P33891 82-701)
T2 sequence (looked up): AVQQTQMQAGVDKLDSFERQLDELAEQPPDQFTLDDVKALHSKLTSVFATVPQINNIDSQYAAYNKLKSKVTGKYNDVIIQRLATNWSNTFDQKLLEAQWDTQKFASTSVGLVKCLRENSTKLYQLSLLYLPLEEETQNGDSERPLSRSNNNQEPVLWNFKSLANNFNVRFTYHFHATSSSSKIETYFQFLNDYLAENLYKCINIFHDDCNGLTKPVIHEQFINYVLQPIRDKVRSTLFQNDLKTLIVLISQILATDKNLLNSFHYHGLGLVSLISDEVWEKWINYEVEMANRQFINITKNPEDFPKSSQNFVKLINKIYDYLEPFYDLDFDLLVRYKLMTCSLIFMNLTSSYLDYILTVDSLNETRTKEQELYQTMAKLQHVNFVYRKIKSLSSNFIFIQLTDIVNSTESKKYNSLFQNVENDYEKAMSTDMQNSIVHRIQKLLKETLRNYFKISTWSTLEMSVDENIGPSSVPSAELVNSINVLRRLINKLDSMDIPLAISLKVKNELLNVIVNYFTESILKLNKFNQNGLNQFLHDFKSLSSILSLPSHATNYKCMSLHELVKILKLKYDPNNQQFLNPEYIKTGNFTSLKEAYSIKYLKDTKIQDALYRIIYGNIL

B1: Sec20ΔC (cytoplasmic domain of Sec20p, residues 1-275) (domain or fragment, S. cerevisiae, UniProt P28791 1-275, looked up)
chain: MVVTFLQDLEVLQDALLNNLQKLSAISRRKESGESKHDNKDSFAAIANEHNDEEEEIEFEDLVNIIESKVSDFESVLKCSIVEMTYKYPELKLQWEKSPRYDQCDKLHIVKLDKQMNEDIYAQLVEELDFVLQFVDWFYCYRLKVKEILRQHHKRDLAWNDEKRDRAIKFHAVDYDKLHQGTSSSSSLTSTSMEKASTREKLLSKTKQLTNNLVRGNQILQSGILQSDLNLDELRAQTNSLTQIDDKYTQFETVFKKTADLVKVLENASHQEKRD
B2: Dsl1ΔC (Dsl1p residues 1-361) (domain or fragment, S. cerevisiae, UniProt P53847 1-361, looked up)
chain: MESLFPNKGEIIRELLKDPLILKNDSKRSNGSELELDSSDLLQREAILANELNILDNLKTFLNLIKEVKTNLNILELENCYYSLQSLRKKMRNNAAYLKQSFNFQQSISTYVDTLHLELVSTLYKILTNGFWKITENSIQFTPTVEWGKDKVHIEYDTFMDFVAQQYFPKGSLDNQAWFILDMTSADSQEQVRAKLNTIMKEYMNLSRIVSMIKNSIFISGKEISYENEKNILVFSKSSSHGQHCVSTVLTSFEAVCDFMLDGLAFRDRKTLSYELGPLFNTEFTKFVKNNASIILESLDSPLKNLVSVINNKLTRLVAKSEVTNWTHSGKEIQDLLMNKQLYYNLLLDKVLESHISEIRS
B3: GST-Tip20p (residues 1-43) (domain or fragment, S. cerevisiae, UniProt P33891 1-43, looked up)
chain: MNGIDDLLNINDRIKQVQNERNELASKLQNLKQSLASNDTEVA

Columns and labels:
[1] = molecular target: T1, Tip20p, full-length (residues 1-701); assay: SEC
[2] = molecular target: intact Dsl1p complex (Tip20p-Dsl1p-Sec39p) (S. cerevisiae, UniProt P33891 1-701; P53847 1-754; Q12745 1-709); assay: SEC
[3] = molecular target: T2, Tip20ΔN (Tip20p residues 82-701); assay: SEC
[4] = molecular target: T1, Tip20p, full-length (residues 1-701); assay: AUC
[5] = molecular target: B2; assay: pull-down

intact Dsl1p complex (Tip20p-Dsl1p-Sec39p), sequence (Q12745 whole entry, the tested form may be a part, one chain of several): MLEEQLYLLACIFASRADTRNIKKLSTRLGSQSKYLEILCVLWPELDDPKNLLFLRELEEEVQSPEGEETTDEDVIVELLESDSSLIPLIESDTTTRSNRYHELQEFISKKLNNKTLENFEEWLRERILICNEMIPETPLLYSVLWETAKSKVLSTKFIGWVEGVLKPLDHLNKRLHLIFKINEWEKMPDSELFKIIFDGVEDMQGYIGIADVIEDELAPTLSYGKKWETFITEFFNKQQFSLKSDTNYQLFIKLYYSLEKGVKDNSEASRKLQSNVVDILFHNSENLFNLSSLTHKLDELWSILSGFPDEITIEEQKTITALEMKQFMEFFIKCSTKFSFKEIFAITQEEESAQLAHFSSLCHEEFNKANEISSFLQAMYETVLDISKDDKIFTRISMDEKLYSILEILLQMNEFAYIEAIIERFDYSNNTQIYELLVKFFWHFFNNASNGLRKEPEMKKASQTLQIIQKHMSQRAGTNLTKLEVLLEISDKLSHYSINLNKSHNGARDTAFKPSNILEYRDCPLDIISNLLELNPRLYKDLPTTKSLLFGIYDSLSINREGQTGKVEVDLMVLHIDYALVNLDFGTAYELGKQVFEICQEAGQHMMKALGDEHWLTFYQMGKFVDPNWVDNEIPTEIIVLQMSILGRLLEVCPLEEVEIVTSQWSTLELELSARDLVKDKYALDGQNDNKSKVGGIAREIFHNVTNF

Binder: B1
binding result [1]: binds
binding result [2]: binds
binding result [3]: binds

Binder: B2
stoichiometry N [4]: 1

Binder: B3
binding result [5]: binds
